Measurements published in publication PMC3043101.

Molecular target: invariant chain (Ii), endogenous in Raji cells (human (endogenous in Raji)) (UniProt P04233)
Test: cross-linking; pooled sucrose gradient fractions 7/8 or 14/15 of Raji cell lysate; increasing DSP (up to 200 µg/ml), 2 h on ice; non-reducing SDS-PAGE; western blot for DRα (TAL-1B5) or Ii (Bu43)

stoichiometry N: 3
Substance: invariant chain (Ii), endogenous in Raji cells (from UniProt P04233 1-296) (natural protein)
